Reference: patent publication CN104974246A (INST PASTEUR SHANGHAI CAS, dated 2015)

Key:
Test in all cases: cell-based or functional assay
[1] = target: T1, HCV 2a亚型 JFH1 毒株的 E2蛋白 (on virus) (hepatitis C virus subtype 2a, strain …, UniProt Q99IB8 384-750)
T1 sequence: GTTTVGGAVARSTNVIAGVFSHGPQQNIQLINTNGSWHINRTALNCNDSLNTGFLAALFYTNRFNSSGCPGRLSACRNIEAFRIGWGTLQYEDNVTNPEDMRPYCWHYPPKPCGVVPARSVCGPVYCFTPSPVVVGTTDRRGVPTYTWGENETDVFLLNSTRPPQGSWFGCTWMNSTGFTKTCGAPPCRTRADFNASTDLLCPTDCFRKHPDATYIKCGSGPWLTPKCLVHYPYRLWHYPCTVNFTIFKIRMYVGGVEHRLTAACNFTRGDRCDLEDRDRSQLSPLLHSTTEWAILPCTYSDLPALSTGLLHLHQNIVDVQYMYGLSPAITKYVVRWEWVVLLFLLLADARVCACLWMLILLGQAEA

[2] = target: HCV 2a亚型 PR79 毒株的 E2蛋白 (on virus) (hepatitis C virus subtype 2a, strain …)
[3] = target: HCV 1b亚型 PR52B6M 毒株的 E2蛋白 (on virus) (hepatitis C virus subtype 1b, strain …)
[4] = target: HCV 1b亚型 PR79 毒株的 E2蛋白 (on virus) (hepatitis C virus subtype 1b, strain …)

Measured: 对 HCV真病毒的抑制率 (真病毒中和试验)

B1: 全人单克隆抗体7F2 (antibody, V domains shown)
VH: QVQLQQWGAGLLKPSETLSLTCAVYGGSFSGYYWNWIRQPPGKGLEWIGEINPRGTANHNPSLKSRVTISVGTSRNQFSLKLRAVTAADTAVYYCARGIHDTLTGYLAFYFDYWGQGTPVTVSS
VL: DIQMTQSPSSLSASVGDTVTITCRASQNIDRHLNWYQQKAGKAPKVLIYAASGLQSGVSSRFSGSGSGTEFTLTINDLEPEDFATYYCQQYYDTLGYTFGQGTKVEIK
> 90%: all assays above
